The series has as its system purified, Flag-tagged recombinant PGAM1 (rPGAM1).

Regarding FLT3, the “in vitro kinase assay (Y26 phosphorylation)” value is “FGFR1 (FIG. 13B), JAK2 (FIG. 13C) and FLT3 (data not shown) directly phosphorylated PGAM1 at Y26 in vitro”.
As for active, recombinant FGFR1 (rFGFR1), the “in vitro kinase assay (Y26 phosphorylation)” value is “FGFR1 (FIG. 13B), JAK2 (FIG. 13C) and FLT3 (data not shown) directly phosphorylated PGAM1 at Y26 in vitro”; the “in vitro kinase assay (tyrosine phosphorylation)” value was “active, recombinant FGFR1 (rFGFR1) directly phosphorylated purified, Flag-tagged recombinant PGAM1 (rPGAM1) at tyrosine residues”.
With active, recombinant JAK2 (rJAK2), the “in vitro kinase assay (Y26 phosphorylation)” value is “FGFR1 (FIG. 13B), JAK2 (FIG. 13C) and FLT3 (data not shown) directly phosphorylated PGAM1 at Y26 in vitro”.
